This data set can be described thus: protein stability index of a GFP-peptide fusion (GPS, HEK-293T) (PSI 1-6); higher = more stable. Particulars: c terminus: a fixed tail appended.

± gives the standard deviation.
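Note: 24-mer peptide tiles fused after GFP, lentivirally expressed, FACS-sorted into six equal bins by GFP/DsRed ratio, decoded by Illumina sequencing, PSI is the read-weighted mean bin number.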

As to PIETLIRDMLLSGSSFNWPYMAIQ [NR2F2], the protein stability index reads like this: (treatment: DMSO) 3.34 ± 0.18; (treatment: MLN4924 1 uM, 8 h) 2.95 ± 0.62.
In the same order, the values of PKGEPGSKQSPPMASSPIQPRKGG [FBF1] are 5.33 ± 0.1 and 5.38 ± 0.091.
In the same order, the values of PLGNTPMMNQSMMGMNMNIGMSAA [CLINT1] are 3.07 ± 0.21 and 2.9 ± 0.24.
In the same order, the values of PLQFLGLFENSLCRLTHIPAYKVS [ZER1] are 2.02 ± 0.55 and 2.08 ± 0.5.
With PMDSTMDDAVAGDFALINKLDIQC [ATE1], the protein stability index runs as follows: (treatment: DMSO) 4.4 ± 0.26; (treatment: MLN4924 1 uM, 8 h) 4.29 ± 0.24.
In the same order, the values of PMPLSEGKSILLFGGAAAVAILAV [BCL2L13] are 2.77 ± 0.76 and 2.75 ± 0.69.
In the same order, the values of PNPSKVLQQLLVLQPEQQLNIYKT [CDS1] are 2.38 ± 0.33 and 2.44 ± 0.3.
Turning to PPHPAPAPQHPAASALRTRMTGGR [DYRK1B], the protein stability index stood at 4.86 ± 0.23 (treatment: DMSO) and 4.9 ± 0.13 (treatment: MLN4924 1 uM, 8 h).
Take PPKIRLKPHRLGDSEHEPVYRAEL [PWWP2B]: the protein stability index was found to be 4.02 ± 0.19 (treatment: DMSO) and 4.09 ± 0.095 (treatment: MLN4924 1 uM, 8 h).
In the same order, the values of PPNGPNLPMATVDIKNPEITTNRF [WASL] are 4.48 ± 0.15 and 4.16 ± 0.29.
Take PPNTRVLRVLPNLPCVVQEGAIVM [PYCR3]: the protein stability index came to 2.22 ± 0.22 (treatment: DMSO) and 2.39 ± 0.25 (treatment: MLN4924 1 uM, 8 h).
In the same order, the values of PPRGPQQLSSFGSVDWLSQSSCSG [VENTX] are 3.77 ± 0.56 and 3.96 ± 0.34.
PPSGSQPLTSTQGLEHAAAGGSSG [FBF1]: the protein stability index (treatment: DMSO) stood at 5.3 ± 0.2 and the protein stability index (treatment: MLN4924 1 uM, 8 h) turned out to be 5.44 ± 0.15.
In the same order, the values of PQAHQESTRGAARPAQAIGTQPRA [SPACA9] are 5.08 ± 0.23 and 5.35 ± 0.18.
In the same order, the values of PQGSRSPYIPPHAALCLEVTLKTA [FKBP8] are 2.26 ± 0.33 and 2.1 ± 0.22.
As for PRAKSKVWKYFGFDTNAEGCILQW [ZBED1], the protein stability index reads like this: (treatment: DMSO) 2.3 ± 0.59; (treatment: MLN4924 1 uM, 8 h) 2.38 ± 0.081.
In the same order, the values of PRGRAHLLPNPYQQDFLGLPEELR [C22orf15] are 3.92 ± 0.24 and 4.31 ± 0.11.
In the same order, the values of PRKRHREDSDVEMVEDDSRKEMTA [MLH1] are 5.43 ± 0.25 and 5.49 ± 0.18.
In the same order, the values of PRTSEAQARKALFEKWEQETAAGK [SMTNL2] are 5.1 ± 0.31 and 5.02 ± 0.24.
For the sequence PSDAPHAHHPLHPHLMQEHMGTNV [HNF4A], the protein stability index stood at 4.45 ± 0.24 (treatment: DMSO) and 4.5 ± 0.1 (treatment: MLN4924 1 uM, 8 h).
In the same order, the values of PSFLSQTGHGVSRGPSPVVLGSQD [FCHO1] are 4.33 ± 0.3 and 4.3 ± 0.32.
In the same order, the values of PSGHSDAQTLAMMLQEQLDAINEE [PPFIA4] are 4.94 ± 0.44 and 4.46 ± 0.21.
In the same order, the values of PSLEELGFDTDGLSSAVWPGGETE [CRY1] are 5.33 ± 0.28 and 5.29 ± 0.16.
Take PVCRKTSRYRSLRPNRQLGSMVEI [TRIM39]: the protein stability index by setting is: (treatment: DMSO) 2.61 ± 0.15; (treatment: MLN4924 1 uM, 8 h) 2.83 ± 0.089.
Turning to PVDPDSQADTVHSNPELDVLLLGS [DNAAF3], the protein stability index was found to be 4.95 ± 0.11 (treatment: DMSO) and 5 ± 0.19 (treatment: MLN4924 1 uM, 8 h).
In the same order, the values of PVHLIDKLPLPVTIKSHLKSFSMA [RAB40C] are 2.3 ± 0.081 and 2.34 ± 0.039.
In the same order, the values of PVYLLLELEDKDGLQSAQPTEGQG [MYBL2] are 3.88 ± 0.23 and 3.79 ± 0.058.
For PWERAMGVDPQQKMELGIDLLAYG [MYOZ1], the protein stability index by setting is: (treatment: DMSO) 2.97 ± 0.28; (treatment: MLN4924 1 uM, 8 h) 2.94 ± 0.13.
In the same order, the values of PWVKELQDSKEMKQLLDSKIGFEI [ZNF449] are 2.9 ± 0.49 and 3.01 ± 0.65.
For the sequence PYFLFQHWATGYSKSSHPLIRSLF [SOAT1], the protein stability index reads like this: (treatment: DMSO) 2.46 ± 0.51; (treatment: MLN4924 1 uM, 8 h) 2.34 ± 0.74.
In the same order, the values of QAAPGALPVSSPEPPPALPPAADA [TRIM55] are 5.46 ± 0.15 and 5.37 ± 0.28.
In turn, QALKFLPVPSAPVIDLAESLVADN [FSD1] returned a protein stability index (treatment: DMSO) of 3.48 ± 0.42 and a protein stability index (treatment: MLN4924 1 uM, 8 h) of 3.77 ± 0.28.
In the same order, the values of QALSNVPPLRNYFLEEDNYKNIKR [USP39] are 3.77 ± 0.28 and 4.18 ± 0.48.
In the same order, the values of QEKDQEMERLRELQRASILDMRRD [FBF1] are 4.86 ± 0.22 and 4.79 ± 0.24.
In the same order, the values of QEMVQRPQPHRNRAGLDLPTIDTG [TRAF3IP2] are 4.5 ± 0.26 and 4.59 ± 0.19.
Sequence QEPPTTDSQEAQSPGHSSAGQEGE [TOR1AIP2] showed a protein stability index (treatment: DMSO) of 5.67 ± 0.25 and a protein stability index (treatment: MLN4924 1 uM, 8 h) of 5.56 ± 0.26.
In the same order, the values of QFHDLMELFRIGGKSPDTNYLFMG [PPP2CA] are 2.53 ± 0.58 and 2.24 ± 0.39.
For the sequence QFQDLTGIESMDQCRHTLEQHNWN [FAF2], the protein stability index is, setting by setting: (treatment: DMSO) 3.1 ± 0.38; (treatment: MLN4924 1 uM, 8 h) 3.37 ± 0.13.
In the same order, the values of QFSVVSVVAYLALAALSATISFRI [RTN1] are 2.99 ± 0.57 and 3.2 ± 0.55.
In the same order, the values of QGEGPEAGDAEVCPTPARLATTEK [NOP53] are 5.46 ± 0.27 and 5.44 ± 0.19.
In the same order, the values of QGRFCTIFRSYSRGAQGVILVYDI [RAB40A] are 3.15 ± 0.35 and 2.99 ± 0.43.
QIKDFKEKIQQDADSVITVGRGEV [ACBD3] came in with a protein stability index (treatment: DMSO) of 5.06 ± 0.18 and a protein stability index (treatment: MLN4924 1 uM, 8 h) of 5.06 ± 0.32.
In the same order, the values of QKLNVFKNFIGLLQNQNFPYPVLF [NLN] are 2.89 ± 1.1 and 2.76 ± 0.46.
On to QKVASNHSPFSSESRALSTSSNLG [TBX5], for which the protein stability index was found to be 4.19 ± 0.17 (treatment: DMSO) and 4.29 ± 0.085 (treatment: MLN4924 1 uM, 8 h).
In the same order, the values of QLLYSPIENIQRVAAGVLCELAQD [CTNNB1] are 2.29 ± 0.24 and 2.27 ± 0.27.
In the same order, the values of QMTPTNLAVCLAPSLFHLNTLKRE [DLC1] are 2.79 ± 0.044 and 2.53 ± 0.036.
On to QPRIHLVRAAQLCSQHWGGMASFR [TBX6], for which the protein stability index reads like this: (treatment: DMSO) 2.38 ± 0.56; (treatment: MLN4924 1 uM, 8 h) 2.24 ± 0.11.
In the same order, the values of QQDLERSLQDASRGDPAHAGLAEL [PBXIP1] are 5.32 ± 0.18 and 5.38 ± 0.16.
In the case of QQLNDYEQLLDVKLALDMEISAYR [LMNB1], the protein stability index by setting is: (treatment: DMSO) 2.95 ± 0.32; (treatment: MLN4924 1 uM, 8 h) 2.9 ± 0.31.
In the same order, the values of QQLYYTEADYEDDSKIAFLMQLQD [IQUB] are 3.45 ± 0.54 and 3.48 ± 0.51.
In the same order, the values of QRLDYEREIQPTAILSLDQIKAIR [SPRY1] are 3.7 ± 0.061 and 3.87 ± 0.24.
Turning to QSAFLHLPLPEQIHKASATIIEPA [INTS4], the protein stability index by setting is: (treatment: DMSO) 3.45 ± 0.31; (treatment: MLN4924 1 uM, 8 h) 3.82 ± 0.1.
In the same order, the values of QSKGHGRAVDWWALGILIFEMLSG [PRKX] are 2.58 ± 0.58 and 2.56 ± 0.36.
